# Assay results from paper PMC12025393, “Neuregulin-1 (NRG1) Binds to the Allosteric Binding Site (Site 2) and Suppresses Allosteric Integrin Activation by Inflammatory Cytokines: A Potential Mechanism of Anti-Inflammatory and Anti-Fibrosis Action of NRG1” (Cells, 2025).
# No end group written: not given here.
# T1: WT NRG1 EGF-like domain
# T1 construct: also called NRG1 EGF domain; neuregulin-1; source: endotoxin-free E. coli BL21 (DE3) pLysS Clear-coli, purified (Ni-NTA in 8M urea, re-folded)
# T1 chain: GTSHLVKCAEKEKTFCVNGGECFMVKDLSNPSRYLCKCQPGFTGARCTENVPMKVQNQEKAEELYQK
# Target: T1, WT NRG1 EGF-like domain
# Experiment: ELISA; NRG1 (20 μg/mL in PBS) immobilised to wells, blocked with 0.1% BSA; peptides fused to GST in PBS/Tween20 (0.05%), 1 h at room temperature; HRP-conjugated anti-GST antibody; signals with scrambled β3 site 2 peptide subtracted
# Details: both partners purified
binder,measurement,value
"DKPVSPYMYISPPEALENPCYDMKTTCLPMF (not fully specified (N-terminus); cysteine pairing not given here; also: fused to GST, cDNA fragment subcloned into the BamHI/EcoRI site of pGEX2T; also called β3 SDL peptide; β3-SDL peptide; source: E. coli BL21, purified (Glutathione Sepharose)) [β3 specificity-determining loop (SDL) peptide fused to GST]",binding result,binds
